Reference: article PMC10684670

B1: B7-H6: tunicamycin (protein)
parent chain: MTWRAAASTCAALLILLWALTTEGDLKVEMMAGGTQITPLNDNVTIFCNIFYSQPLNITSMGITWFWKSLTFDKEVKVFEFFGDHQEAFRPGAIVSPWRLKSGDASLRLPGIQLEEAGEYRCEVVVTPLKAQGTVQLEVVASPASRLLLDQVGMKENEDKYMCESSGFYPEAINITWEKQTQKFPHPIEISEDVITGPTIKNMDGTFNVTSCLKLNSSQEDPGTVYQCVVRHASLHTPLRSNFTLTAARHSLSETEKTDNFSIHWWPISFIGVGLVLLIVLIPWKKICNKSSSAYTPLKCILKHWNSFDTQTLKKEHLIFFCTRAWPSYQLQDGEAWPPEGSVNINTIQQLDVFCRQEGKWSEVPYVQAFFALRDNPDLCQCCRIDPALLTVTSGKSIDDNSTKSEKQTPREHSDAVPDAPILPVSPIWEPPPATTSTTPVLSSQPPTLLLPLQ
B2: B7-H6: N43Q (protein)
parent chain: B1 parent chain
B3: B7-H6: N208Q (protein)
parent chain: B1 parent chain

Legend:
[1] = molecular target: rhNKp30-his protein (UniProt O14931); assay: flow cytometry on cells; conditions: 293T cells stably expressing B7-H6, stained with his-tagged NKp30; parent: est. 1.0; read off a plot
[2] = CHX chase, WB, U87; conditions: glycan lost; control: DMSO
[3] = CHX chase, WB, 293T; conditions: glycan lost; control: DMSO
[4] = CHX chase, WB, stable 293T; conditions: glycan lost; control: wild type
[5] = surface B7-H6 flow cytometry, HCT-116; conditions: glycan lost; control: wild type
[6] = surface B7-H6 flow cytometry, HEK293T; conditions: glycan lost; control: wild type
[7] = WB of TCA-precipitated supernatant, HCT-116; conditions: glycan lost; control: wild type
[8] = WB of TCA-precipitated supernatant, HEK293T; conditions: glycan lost; control: wild type

Molecule	degradation_or_half_life, half_life [4]	localisation_or_trafficking [5]	localisation_or_trafficking [6]	other results
B7-H6, wild type, stably expressed on B7-H6 knockout 293T cells (from UniProt Q68D85) N411Q				ratio to parent [1]: 0.94
B1				degradation_or_half_life, half_life [2]: decreases, 12.83 vs 27.14; degradation_or_half_life, half_life [3]: decreases, 17.36 vs 47.42
B2	decreases, 5 vs about 52	decreases	decreases	
B3	decreases, 15 vs about 52	decreases	decreases	other: shedding of soluble B7-H6 [7]: increases; other: shedding of soluble B7-H6 [8]: increases
